Laboratory results reported in patent US20230416363A1 (KADMON, published 2023).

How the values were obtained:
[1] = biological target: T1, human PD-1 expressed on cells (human, UniProt Q15116 25-288); assay: flow cytometry, hPD1-Jurkat cells
T1 construct: whole, on cells

[2] = biological target: T1, human PD-1 expressed on cells; assay: cell-based or functional assay
hPD-1-Fc [3] = biological target: T2, hPD-1-Fc (human, UniProt Q15116 25-167); assay: blocking ELISA, hPD-1-Fc to hPD-L1-Fc
T2 construct: domain: IgV domain; also called human PD-1-Fc; not shown: human IgG1 Fc
T2 sequence (Q15116 25-167 limits assumed): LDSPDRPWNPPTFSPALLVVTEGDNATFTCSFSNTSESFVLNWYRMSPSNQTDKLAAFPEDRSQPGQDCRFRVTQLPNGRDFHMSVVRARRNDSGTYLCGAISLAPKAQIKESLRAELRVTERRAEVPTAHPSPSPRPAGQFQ

[4] = biological target: T1, human PD-1 expressed on cells; assay: flow cytometry, hPD1-293 cells
hPD-1-Fc [5] = biological target: T2, hPD-1-Fc; assay: ELISA, hPD-1-Fc coated
hPD-1-Fc [6] = biological target: T2, hPD-1-Fc; assay: SPR Biacore T200, PD-1-Fc immobilised
[7] = biological target: T1, human PD-1 expressed on cells; assay: flow cytometry, SEB-activated PBMC donor one
[8] = biological target: T1, human PD-1 expressed on cells; assay: flow cytometry, hPD1-293 cells; remark: listed apart in the source
[9] = biological target: T1, human PD-1 expressed on cells; assay: flow cytometry, SEB-activated PBMC donor three
hPD-1-his [10] = biological target: T3, hPD-1-his (human, UniProt Q15116 25-167); assay: ELISA, captured hPD-1-his
T3 construct: domain: IgV domain; monomer in solution; biotin-labelled where captured by streptavidin; also called biotin-hPD-1-his
T3 sequence (Q15116 other isoform, or with tags, fused parts or gaps limits assumed): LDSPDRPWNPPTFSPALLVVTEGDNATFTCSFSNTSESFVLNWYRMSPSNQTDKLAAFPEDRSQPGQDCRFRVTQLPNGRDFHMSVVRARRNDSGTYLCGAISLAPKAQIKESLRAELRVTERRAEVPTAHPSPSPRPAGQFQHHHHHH

hPD-1-his [11] = biological target: T3, hPD-1-his; assay: SPR Biacore T200, PD-1-his immobilised
[12] = biological target: T1, human PD-1 expressed on cells; assay: cell-based or functional assay; remark: listed apart in the source
hPD-1-Fc [13] = biological target: T2, hPD-1-Fc; assay: blocking ELISA, PD-1 to PD-L1
[14] = biological target: T1, human PD-1 expressed on cells; assay: flow cytometry, hPD-1-Jurkat cells
hPD-1-his [15] = biological target: T3, hPD-1-his; assay: SPR, Exp. 2
hPD-1-his [16] = biological target: T3, hPD-1-his; assay: SPR, Exp. 1
hPD-1-Fc [17] = biological target: T2, hPD-1-Fc; assay: SPR, Exp. 1
hPD-1-Fc [18] = biological target: T2, hPD-1-Fc; assay: ELISA, hPD1-Fc coated
[19] = biological target: T1, human PD-1 expressed on cells; assay: flow cytometry, activated PBMC donor FA
[20] = biological target: T1, human PD-1 expressed on cells; assay: cell-based or functional assay; remark: listed apart in the source
hPD-1-his [21] = biological target: T3, hPD-1-his; assay: SPR, Exp. 4
hPD-1-Fc [22] = biological target: T2, hPD-1-Fc; assay: SPR, range over experiments
[23] = biological target: T1, human PD-1 expressed on cells; assay: cell-based or functional assay; remark: listed apart in the source
hPD-1-Fc [24] = biological target: T2, hPD-1-Fc; assay: ELISA, PD-1-Fc coated
hPD-1-his [25] = biological target: T3, hPD-1-his; assay: ELISA, biotin-PD-1-his on streptavidin
[26] = biological target: T1, human PD-1 expressed on cells; assay: flow cytometry, activated PBMC donor two
hPD-1-his [27] = biological target: T3, hPD-1-his; assay: SPR, Exp. 3
hPD-1-Fc [28] = biological target: T2, hPD-1-Fc; assay: SPR, Exp. 3
hPD-1-his [29] = biological target: T3, hPD-1-his; assay: ELISA, hPD-1-his on anti-his
hPD-1-his [30] = biological target: T3, hPD-1-his; assay: ELISA, PD-1-his on anti-his
[31] = biological target: T1, human PD-1 expressed on cells; assay: flow cytometry, hPD-1-293 cells
[32] = biological target: T1, human PD-1 expressed on cells; assay: flow cytometry, SEB-activated PBMC donor
hPD-1-Fc [33] = biological target: T2, hPD-1-Fc; assay: blocking ELISA, hPD-1-Fc to hPD-L1-Fc; remark: listed apart in the source
hPD-1-Fc [34] = biological target: T2, hPD-1-Fc; assay: blocking ELISA, PD-1 to PD-L2
[35] = biological target: T1, human PD-1 expressed on cells; assay: flow cytometry, SEB-activated PBMC donor two
hPD-1-his [36] = biological target: T3, hPD-1-his; assay: ELISA, biotin-hPD-1-his on streptavidin

T1 sequence (Q15116 25-288): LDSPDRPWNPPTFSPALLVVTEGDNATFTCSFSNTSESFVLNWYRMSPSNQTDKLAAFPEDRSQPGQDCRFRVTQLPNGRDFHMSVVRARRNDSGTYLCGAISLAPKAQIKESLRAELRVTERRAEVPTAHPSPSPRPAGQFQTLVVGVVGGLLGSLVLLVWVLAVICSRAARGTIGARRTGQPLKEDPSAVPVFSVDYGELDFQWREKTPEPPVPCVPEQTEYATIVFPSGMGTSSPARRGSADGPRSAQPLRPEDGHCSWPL

B1: 24H9 (antibody, human IgG1, V domains shown)
VH: EVQLLESGGGLVQPGGSLRLSCAASGFTFSSYWMSWVRQAPGKGLEWVSAISGSGGSTYYADSVKGRFTISRDNSKNTLYLQMNSLRAEDTAVYYCASSPLQWVDVWGQGTTVTVSS
VL: DIQMTQSPSSLSASVGDRVTITCRASQGISSWLAWYQQKPGKAPKLLIYSASSLQSGVPSRFSGSGSGTDFTLTISSLQPEDFATYYCQQANSFPFTFGPGTKVDIK
[1]
  EC50: 770 pM
  MFI at 5 nM: 80.6 MFI
[2]
  EC 50, Promega PD-1/PD-L1 blockade bioassay: 0.823 µg/mL
  Fold of induction: 3.96 fold
hPD-1-Fc [3]
  IC50: 2280 pM
  Inhibition % (3.3 nM): 70%
  Inhibition % (30 nM): 92.9%
[4]
  EC50: 58700 pM
  MFI at 68 nM: 59 MFI
hPD-1-Fc [5]
  EC50: 128 pM
  OD at 10 nM: 1.84 OD450
hPD-1-Fc [6]
  Kd: 1460 pM
[7]
  EC50: 1370 pM
  MFI at 100 nM: 18.7 MFI
[8]
  EC50: 2690 pM
  MFI at 5 nM: 42.8 MFI
[9]
  EC50: 913 pM
  MFI at 100 nM: 70.5 MFI
hPD-1-his [10]
  EC50: 1310 pM
  OD at 10 nM: 0.69 OD450
hPD-1-his [11]
  Kd: 13900 pM
[12]
  EC50, Promega blockade bioassay: 0.855 µg/mL
  Fold induction: 4.97 fold

B2: 31B1 (antibody, V domains shown)
VH: QVQLVQSGAEVKKPGSSVKVSCKASGGTFSSSVISWVRQAPGQGLEWMGGIIPIFGTANYAQKFQGRVTITADESTSTAYMELSSLRSEDTAVYYCAREGLGCSGGSCYSGYYYGMDVWGQGTTVTVSS
VL: DIVMTQSPLSLPVTPGEPASISCRSSQSLLHSNGYNYLDWYLQKPGQSPQLLIYEASSLHSGVPDRFSGSGSGTDFTLKISRVEAEDVGVYYCMQGTHWPYTFGQGTKVEIK
notes: also called 780_38; 33B1 and 31B2 (apparent misprints)
[1]
  EC50: 84 pM
  MFI at 5 nM: 91.6 MFI
hPD-1-Fc [13]
  IC50: 2650 pM
  Inhibition, % at 5.56 nM: 89.7%
[14]
  MFI, 5 nM: 67 MFI
hPD-1-his [15]
  Kd: < 10 pM
hPD-1-his [16]
  Kd: < 36 pM
hPD-1-Fc [17]
  Kd: < 14 pM
hPD-1-Fc [18]
  EC50: 167 pM
  OD450 at 10 nM: 0.974 OD450
[19]
  EC50: 49 pM
  MFI at 25 nM: 18.4 MFI
[20]
  EC50 averaged from two experiments, Promega blockade bioassay: 0.168 µg/mL
hPD-1-his [21]
  Kd: < 19 pM
hPD-1-Fc [22]
  Kd: 10 to 20 pM
[23]
  EC50, Promega blockade bioassay, Exp. 1: 0.168 µg/mL
  EC50, Promega blockade bioassay, Exp. 2: 0.172 µg/mL
  Fold induction at 12 µg/ml, Exp. 1: 7.44 fold
  Fold induction at 12 µg/ml, Exp. 2: 8.4 fold
hPD-1-Fc [24]
  EC50: 114 pM
hPD-1-his [25]
  EC50: 104 pM
[26]
  EC50: 25 pM
  MFI at 25 nM: 17.8 MFI
hPD-1-his [27]
  Kd: 353 pM
hPD-1-Fc [28]
  Kd: < 10 pM
hPD-1-his [29]
  EC50: 95 pM
  OD450 at 10 nM: 0.59 OD450
hPD-1-his [30]
  EC50: 139 pM
[31]
  MFI, 5 nM: 186 MFI
hPD-1-Fc [6]
  Kd: 688 pM
[8]
  EC50: 77 pM
  MFI at 5 nM: 46.4 MFI
[32]
  MFI, 5 nM: 98.5 MFI
hPD-1-Fc [33]
  IC50: 2150 pM
  Inhibition % at 5.6 nM: 90.2%
  Inhibition % at 50 nM: 91.4%
hPD-1-Fc [34]
  IC50: 3940 pM
  Inhibition, % at 3.7 nM: 41.4%
  Inhibition, % at 100 nM: 94.5%
[35]
  MFI, 5 nM: 67.7 MFI
hPD-1-his [11]
  Kd: 6560 pM
hPD-1-his [36]
  EC50: 244 pM
  OD450 at 10 nM: 0.953 OD450
[12]
  EC50, Promega blockade bioassay: 0.139 µg/mL
  Fold induction: 6.48 fold

B3: 23H9 (antibody, human IgG1, V domains shown)
VH: B2 VH
VL: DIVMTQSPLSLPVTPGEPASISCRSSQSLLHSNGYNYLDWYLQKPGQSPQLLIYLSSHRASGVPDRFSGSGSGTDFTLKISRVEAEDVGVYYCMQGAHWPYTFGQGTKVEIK
[1]
  EC50: 420 pM
  MFI at 5 nM: 120 MFI
[2]
  EC 50, Promega PD-1/PD-L1 blockade bioassay: 0.688 µg/mL
  Fold of induction: 4.42 fold
hPD-1-Fc [18]
  EC50: 121 pM
  OD450 at 10 nM: 0.916 OD450
hPD-1-Fc [3]
  IC50: 2040 pM
  Inhibition % (3.3 nM): 82.5%
  Inhibition % (30 nM): 94.7%
[4]
  EC50: 2530 pM
  MFI at 68 nM: 38.8 MFI
hPD-1-Fc [5]
  EC50: 151 pM
  OD at 10 nM: 1.75 OD450
hPD-1-his [29]
  EC50: 238 pM
  OD450 at 10 nM: 0.406 OD450
hPD-1-Fc [6]
  Kd: 928 pM
[7]
  EC50: 993 pM
  MFI at 100 nM: 26.2 MFI
[8]
  EC50: 330 pM
  MFI at 5 nM: 43 MFI
hPD-1-Fc [33]
  IC50: 1270 pM
  Inhibition % at 5.6 nM: 88.6%
  Inhibition % at 50 nM: 90.4%
[9]
  EC50: 829 pM
  MFI at 100 nM: 109 MFI
hPD-1-his [10]
  EC50: 350 pM
  OD at 10 nM: 1.25 OD450
hPD-1-his [11]
  Kd: 4910 pM
hPD-1-his [36]
  EC50: 180 pM
  OD450 at 10 nM: 0.89 OD450
[12]
  EC50, Promega blockade bioassay: 0.551 µg/mL
  Fold induction: 5.58 fold

B4: 19B6 (antibody, V domains shown)
VH: QVQLVQSGAEVKKPGASVKVSCKASGYTFTGYYMHWVRQAPGQGLEWMGIINPSGGSTSYAQKFQGRVTMTRDTSTSTVYMELSSLRSEDTAVYYCAKTAGYDWLPSGLGMDVWGQGTTVTVSS
VL: DIQMTQSPSSLSASVGDRVTITCRASQSINSWLAWYQQKPGKAPKLLIYYASSLQSGVPSRFSGSGSGTDFTLTISSLQPEDFATYYCQQGYSVPLSFGQGTKLEIK
[2]
  EC 50, Promega PD-1/PD-L1 blockade bioassay: 2.13 µg/mL
  Fold of induction: 3.04 fold
hPD-1-Fc [3]
  IC50: 2690 pM
  Inhibition % (3.3 nM): 51.9%
  Inhibition % (30 nM): 85.9%
[4]
  MFI at 68 nM: 20.8 MFI
hPD-1-Fc [5]
  EC50: 168 pM
  OD at 10 nM: 1.81 OD450
[7]
  EC50: 13600 pM
  MFI at 100 nM: 13.7 MFI
[9]
  EC50: 10700 pM
  MFI at 100 nM: 51.2 MFI
hPD-1-his [10]
  EC50: > 100000 pM
  OD at 10 nM: 0.3 OD450
